# Measured values from paper PMC6632053 (2019).
# Bridge positions count the residues as written; N and C are the ends. Square brackets hold non-standard residues; d marks the D form. Primed or numbered codes have the meaning given here. R8 = C=CCCCCCC[C@@](C)(N)C(=O)O; S5 = C=CCCC[C@](C)(N)C(=O)O; Cba′ = not defined here
# Experiments:
# [1] = target: site-specific mono-biotinylated Mdm2 (human, biotin (site-specific, mono, by sortase-mediated ligation; site not stated)); experiment: SPR
# [2] = target: human Mdm2 (1–125) (human); experiment: ITC
# human Mdm2 (1–125) (human), sequence (chain, as listed by the source): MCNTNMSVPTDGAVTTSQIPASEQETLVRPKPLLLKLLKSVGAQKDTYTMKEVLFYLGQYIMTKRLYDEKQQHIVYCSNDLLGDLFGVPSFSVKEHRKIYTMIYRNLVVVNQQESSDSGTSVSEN
# site-specific mono-biotinylated Mdm2 (human, biotin (site-specific, mono, by sortase-mediated ligation; site not stated)), sequence (chain, as listed by the source): as above
binder,measurement,setting,value
Ac-LTF[R8]EYWQL[Cba′][S5]SAA-NH2 (staple 4-11; reading uncertain) [MP-292],Kd,[1],1.4 nM
same,Kd,[2],< 20 nM
